We go through one substance from patent US6458368.

Test [1] has as its target unfolded HPV16 VLP (baculo-derived HPV16 VLPs in 0.2M carbonate buffer pH9.5) (Human papillomavirus type 16) (UniProt P03101). Put plainly: ELISA, plates coated with VLP in carbonate buffer pH 9.5; antibody stock 35 µg/ml. For orientation: ELISA stands for enzyme-linked immunosorbent assay.
Test [2] concerns the target baculo-derived HPV16 VLPs in PBS (native form) (Human papillomavirus type 16) (UniProt P03101). Put plainly: ELISA, plates coated with baculo-derived HPV16 VLPs in PBS; antibody stock 35 µg/ml.

For the substance HPV16-L1 mAb CAMVIR-1 (antibody), the IgG titer (reciprocal of the highest sample dilution that yielded an OD492 four times that of preimmune sample) (reciprocal dilution) turned out to be 80000 in test [1] and 16000 in test [2].
